A short description of series [1]: SEC; Superdex 200 GL 10/300, PBS pH 7.5, protein injected at 10 µM, 0.5 mL/min, A280; percent of monomeric, dimeric and high molecular weight species. For orientation: Size exclusion chromatography separates by hydrodynamic size, large species first.
Series [2] is described as follows: SEC; Superdex 200 GL 10/300, PBS pH 7.5, protein injected at 50 µM, 0.5 mL/min, A280; percent of monomeric, dimeric and high molecular weight species.
Series [3] is described as follows: SEC; Superdex 200 GL 10/300, PBS pH 7.5, protein injected at 120 µM, 0.5 mL/min, A280; percent of monomeric, dimeric and high molecular weight species.
The target of series [4] is BlaP(Gln)79 (Bacillus licheniformis 749/C). The series is described as above.

By stoichiometry N is commonly meant the number of molecules, sites or subunits per partner or assembly.

Consider BlaP(Gln)79, for which the % dimeric species (SEC) in series [1] turned out to be 0.9%; in series [2] it was 1.1%; in series [3], 1.2%. Moreover, the % high molecular weight oligomeric species (SEC) was found to be 1.8% in series [1], 2.5% in series [2] and 3.5% in series [3].

For the substance BlaP(Gln)23, the % dimeric species (SEC) in series [2] stood at 0.6%; in series [3] it was 0.7%.

BlaP(Gln)79 (enzyme) registered a stoichiometry N in series [4] of over 15.

Consider “β-lactamase from Bacillus licheniformis 749/C (BlaP)”, for which the % dimeric species (SEC) in series [2] stood at 4.9%; in series [3], 5.6%.

As to BlaP(Gln)30, the % dimeric species (SEC) was 0.4% in series [2] and 0.5% in series [3].

Take BlaP(Gln)55: the % dimeric species (SEC) stood at 1.1% in series [2] and 1.4% in series [3].
